Reference: patent publication US20220112276A1 (Janssen / Centocor, published 2022)

T1: mouse pIgR extracellular domain (ECD) (mouse, UniProt O70570 19-645)
T1 construct: Bought from R&D Systems (Cat 2800-PG-050); also called mpIgR ECD
T1 sequence: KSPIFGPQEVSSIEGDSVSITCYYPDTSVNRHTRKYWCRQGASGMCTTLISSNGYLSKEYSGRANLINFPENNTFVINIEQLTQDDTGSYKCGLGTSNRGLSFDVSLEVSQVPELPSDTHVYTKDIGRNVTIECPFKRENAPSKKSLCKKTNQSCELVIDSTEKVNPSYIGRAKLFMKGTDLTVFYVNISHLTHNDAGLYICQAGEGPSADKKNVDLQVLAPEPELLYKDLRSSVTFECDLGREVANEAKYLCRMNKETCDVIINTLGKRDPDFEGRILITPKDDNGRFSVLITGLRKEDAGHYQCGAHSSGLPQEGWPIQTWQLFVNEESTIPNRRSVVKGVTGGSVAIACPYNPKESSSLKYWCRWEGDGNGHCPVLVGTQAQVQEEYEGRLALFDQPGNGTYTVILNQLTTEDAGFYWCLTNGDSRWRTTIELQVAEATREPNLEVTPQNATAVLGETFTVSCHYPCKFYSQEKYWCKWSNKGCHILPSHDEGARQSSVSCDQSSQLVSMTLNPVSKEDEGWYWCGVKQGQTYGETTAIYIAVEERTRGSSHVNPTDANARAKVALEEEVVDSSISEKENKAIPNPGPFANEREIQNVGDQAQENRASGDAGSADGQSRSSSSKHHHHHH

T2: rat pIgR extracellular domain (rat, UniProt P15083 19-643)
T2 construct: extracellular domain
T2 sequence (looked up): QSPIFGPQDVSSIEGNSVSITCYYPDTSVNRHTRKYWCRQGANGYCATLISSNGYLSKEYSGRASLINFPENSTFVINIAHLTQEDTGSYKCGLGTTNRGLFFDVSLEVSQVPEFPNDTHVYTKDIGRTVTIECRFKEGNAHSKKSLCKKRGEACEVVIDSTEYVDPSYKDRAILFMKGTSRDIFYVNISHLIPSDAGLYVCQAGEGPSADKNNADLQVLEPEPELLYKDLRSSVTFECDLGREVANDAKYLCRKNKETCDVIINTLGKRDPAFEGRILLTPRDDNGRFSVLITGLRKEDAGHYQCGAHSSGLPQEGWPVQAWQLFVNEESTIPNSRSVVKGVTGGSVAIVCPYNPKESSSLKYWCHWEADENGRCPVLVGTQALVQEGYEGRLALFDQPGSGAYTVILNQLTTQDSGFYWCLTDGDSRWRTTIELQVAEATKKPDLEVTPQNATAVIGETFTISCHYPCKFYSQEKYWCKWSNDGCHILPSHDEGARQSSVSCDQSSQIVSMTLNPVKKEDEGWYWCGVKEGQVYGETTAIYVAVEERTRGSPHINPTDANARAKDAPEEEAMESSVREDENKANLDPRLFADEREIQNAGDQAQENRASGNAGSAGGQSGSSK


Legend:
[1] = target: T1, mouse pIgR extracellular domain (ECD); assay: SPR, VHH captured by anti-Fc, ECD analyte
How it was run: (§1)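 Single-cycle kinetics: ECD analyte from 30 nM, 3-fold series, low to high, with 30 min off-rate monitoring, over VHH captured at 0.5 ug/ml (~200-300 RU). HBSP plus 100 ug/ml BSA at 30 μL/min. Reference cell and buffer blank subtracted; global 1:1 Langmuir fit gave kon, koff, KD.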

[2] = target: T3, cynomolgus monkey pIgR extracellular domain (cynomolgus monkey, UniProt A0A2K5WMU9 19-638); assay: SPR, VHH captured by anti-Fc, ECD analyte
T3 construct: extracellular domain
T3 sequence (A0A2K5WMU9 entry or part of it): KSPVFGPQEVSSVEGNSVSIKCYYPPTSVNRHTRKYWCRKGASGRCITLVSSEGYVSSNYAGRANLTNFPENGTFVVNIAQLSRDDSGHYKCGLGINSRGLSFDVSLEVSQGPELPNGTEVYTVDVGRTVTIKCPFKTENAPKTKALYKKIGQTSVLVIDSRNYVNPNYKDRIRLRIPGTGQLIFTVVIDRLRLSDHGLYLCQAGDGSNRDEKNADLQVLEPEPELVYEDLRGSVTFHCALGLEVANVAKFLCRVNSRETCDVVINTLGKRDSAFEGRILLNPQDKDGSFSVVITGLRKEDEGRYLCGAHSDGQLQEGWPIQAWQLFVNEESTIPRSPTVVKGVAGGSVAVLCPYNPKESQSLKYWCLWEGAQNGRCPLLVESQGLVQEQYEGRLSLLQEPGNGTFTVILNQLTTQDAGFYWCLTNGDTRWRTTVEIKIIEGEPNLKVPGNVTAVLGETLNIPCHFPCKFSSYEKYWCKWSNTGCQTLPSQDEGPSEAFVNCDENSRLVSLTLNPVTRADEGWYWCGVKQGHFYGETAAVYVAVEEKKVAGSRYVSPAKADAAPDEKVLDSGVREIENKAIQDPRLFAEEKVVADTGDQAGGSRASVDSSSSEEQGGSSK
How it was run: as §1

[3] = target: T2, rat pIgR extracellular domain; assay: SPR, VHH captured by anti-Fc, ECD analyte
How it was run: as §1

[4] = target: T4, human pIgR extracellular domain (ECD) (human, UniProt P01833 19-638); assay: SPR
T4 construct: Bought from R&D Systems (Cat 2717-PG-050); also called hpIgR ECD
T4 sequence (P01833 other isoform, or with tags, fused parts or gaps): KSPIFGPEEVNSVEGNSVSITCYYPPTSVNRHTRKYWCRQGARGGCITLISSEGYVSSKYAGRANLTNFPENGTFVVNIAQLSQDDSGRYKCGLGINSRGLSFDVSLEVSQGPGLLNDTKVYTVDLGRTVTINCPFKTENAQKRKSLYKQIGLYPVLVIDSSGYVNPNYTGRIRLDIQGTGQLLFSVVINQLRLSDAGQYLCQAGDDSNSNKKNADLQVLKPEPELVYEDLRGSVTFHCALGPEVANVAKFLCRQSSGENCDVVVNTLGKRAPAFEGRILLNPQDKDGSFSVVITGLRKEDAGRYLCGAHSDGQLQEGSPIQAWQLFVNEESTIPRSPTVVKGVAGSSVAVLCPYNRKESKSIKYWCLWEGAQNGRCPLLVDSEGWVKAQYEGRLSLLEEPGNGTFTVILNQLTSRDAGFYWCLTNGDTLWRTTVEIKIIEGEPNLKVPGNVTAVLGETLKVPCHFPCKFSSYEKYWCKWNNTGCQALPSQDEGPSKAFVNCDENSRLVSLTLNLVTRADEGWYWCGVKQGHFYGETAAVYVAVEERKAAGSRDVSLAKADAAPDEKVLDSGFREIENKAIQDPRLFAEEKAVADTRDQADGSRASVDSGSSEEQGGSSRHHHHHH

| Binder | Kd [1] [nM] | Kd [2] [nM] | Kd [3] [nM] | binding result [4] |
| --- | --- | --- | --- | --- |
| 01E11R2 VHH Mono-Fc (Fc fusion) QVQLVESGGGLVQTGGSLRLSCAASGLTFSSYTMGWFRQAPGKEREFVAAISWGGASTWYADSVKGRFTISRDNAKTMVYLQMNGLKPEDTAVYYCAKGRNNGYATAVRAYDYWGQGTLVTVSSSPAPELLGGPSVFLFPPKPKDTLMISRTPEVTCVVVDVSHEDPEVKFNWYVDGVEVHNAKTKPREEQYNSTYRVVSVLTVLHQDWLNGKEYKCKVSNKALPAPIEKTISKAKGQPREPQVYTKPPSREEMTKNQVSLSCLVKGFYPSDIAVEWESNGQPENNYKTTVPVLDSDGSFRLASYLTVDKSRWQQGNVFSCSVMHEALHNHYTQKSLSLSPGK | 20.6 | 86.1 | 22.5 | no binding (tested: 30 nM) |
| 01C03R3L VHH Mono-Fc (Fc fusion) QVQLVESGGGLVQPGGRLRLSCAASGSIFSIRDMGWYRQAPGKQRELVAIFARGGSTHYADSVKGRFTISRDNAKNTVYLQMNSLEPEDTAAYYCNAEVATMIQPGFRDYWGQGTLVTVSSSPAPELLGGPSVFLFPPKPKDTLMISRTPEVTCVVVDVSHEDPEVKFNWYVDGVEVHNAKTKPREEQYNSTYRVVSVLTVLHQDWLNGKEYKCKVSNKALPAPIEKTISKAKGQPREPQVYTKPPSREEMTKNQVSLSCLVKGFYPSDIAVEWESNGQPENNYKTTVPVLDSDGSFRLASYLTVDKSRWQQGNVFSCSVMHEALHNHYTQKSLSLSPGK | 33.1 |  | 16 | no binding (tested: 30 nM) |
| 02H11R3 VHH Mono-Fc (Fc fusion) EVQLVESGGGSVQAGGSLRLSCAASGRTFSNYAMGWFRQAPGKEREFVAGISRSGGSTYSADSVKGRFTISRDNAKNTVYLQMNSLKPEDTAVYYCAADGLDYALGFRGDYWGQGTQVTVSSSPAPELLGGPSVFLFPPKPKDTLMISRTPEVTCVVVDVSHEDPEVKFNWYVDGVEVHNAKTKPREEQYNSTYRVVSVLTVLHQDWLNGKEYKCKVSNKALPAPIEKTISKAKGQPREPQVYTKPPSREEMTKNQVSLSCLVKGFYPSDIAVEWESNGQPENNYKTTVPVLDSDGSFRLASYLTVDKSRWQQGNVFSCSVMHEALHNHYTQKSLSLSPGK | 0.71 |  | 1.74 | no binding (tested: 30 nM) |

Second part, the binder after the results:

| Kd [1] [nM] | Kd [2] [nM] | Kd [3] [nM] | binding result [4] | Binder |
| --- | --- | --- | --- | --- |
| 2.76 |  | 1.32 | no binding (tested: 30 nM) | 02B03R3 VHH Mono-Fc (Fc fusion) EVQLVESGGGLVQSGGQLRLSCAASGSIASIRDMAWYRQAPGKQRELVAIFARGGTTHYADSVKGRFTISRDNAKNTVYLQMNSLEPEDTAAYYCNAEVATMFQPGFRDYWGRGTLVTVSSSPAPELLGGPSVFLFPPKPKDTLMISRTPEVTCVVVDVSHEDPEVKFNWYVDGVEVHNAKTKPREEQYNSTYRVVSVLTVLHQDWLNGKEYKCKVSNKALPAPIEKTISKAKGQPREPQVYTKPPSREEMTKNQVSLSCLVKGFYPSDIAVEWESNGQPENNYKTTVPVLDSDGSFRLASYLTVDKSRWQQGNVFSCSVMHEALHNHYTQKSLSLSPGK |
| 1.34 |  | 0.448 | no binding (tested: 30 nM) | 02D06R3 VHH Mono-Fc (Fc fusion) QVQLVESGGGLVQPGGRLRLSCAASGSIFSIRDMAWYRQAPGKQREWVAIAARGGSTHYADSVKGRFTISRDNAKNTVYLQMNTLEPEDTAAYYCNAEVATMIQPGFRDYWGQGTQVTVSSSPAPELLGGPSVFLFPPKPKDTLMISRTPEVTCVVVDVSHEDPEVKFNWYVDGVEVHNAKTKPREEQYNSTYRVVSVLTVLHQDWLNGKEYKCKVSNKALPAPIEKTISKAKGQPREPQVYTKPPSREEMTKNQVSLSCLVKGFYPSDIAVEWESNGQPENNYKTTVPVLDSDGSFRLASYLTVDKSRWQQGNVFSCSVMHEALHNHYTQKSLSLSPGK |
| 0.796 |  | 1.61 | no binding (tested: 30 nM) | 01G03R3L VHH Mono-Fc (Fc fusion) QVQLVESGGGSVQAGGSLRLSCAASGRTFSNYAMGWFRQAPGKEREFVAGISRSGGSTYSADSVKGRFTISRDNAKNTVYLQMNSLKPEDTAVYYCAADGLDYALGFRGDYWGQGTLVTVSSSPAPELLGGPSVFLFPPKPKDTLMISRTPEVTCVVVDVSHEDPEVKFNWYVDGVEVHNAKTKPREEQYNSTYRVVSVLTVLHQDWLNGKEYKCKVSNKALPAPIEKTISKAKGQPREPQVYTKPPSREEMTKNQVSLSCLVKGFYPSDIAVEWESNGQPENNYKTTVPVLDSDGSFRLASYLTVDKSRWQQGNVFSCSVMHEALHNHYTQKSLSLSPGK |
